Experimental data reported in patent US20220332804A1 (CSL INNOVATION, published 2022).
Where a chain is given by its changes, count along the chain named.

Columns and labels:
Assay in all cases: SPR, antibody captured, C2 as analyte;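 also: biacore at 37 °C, anti-C2 mAbs held by immobilised goat anti-human IgG, C2 alanine or serine mutants injected, double-referenced sensorgrams fitted to a 1:1 kinetic or steady-state model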
[1] = molecular target: T1, human C2 A326S (human, UniProt P06681 21-752)
T1 sequence: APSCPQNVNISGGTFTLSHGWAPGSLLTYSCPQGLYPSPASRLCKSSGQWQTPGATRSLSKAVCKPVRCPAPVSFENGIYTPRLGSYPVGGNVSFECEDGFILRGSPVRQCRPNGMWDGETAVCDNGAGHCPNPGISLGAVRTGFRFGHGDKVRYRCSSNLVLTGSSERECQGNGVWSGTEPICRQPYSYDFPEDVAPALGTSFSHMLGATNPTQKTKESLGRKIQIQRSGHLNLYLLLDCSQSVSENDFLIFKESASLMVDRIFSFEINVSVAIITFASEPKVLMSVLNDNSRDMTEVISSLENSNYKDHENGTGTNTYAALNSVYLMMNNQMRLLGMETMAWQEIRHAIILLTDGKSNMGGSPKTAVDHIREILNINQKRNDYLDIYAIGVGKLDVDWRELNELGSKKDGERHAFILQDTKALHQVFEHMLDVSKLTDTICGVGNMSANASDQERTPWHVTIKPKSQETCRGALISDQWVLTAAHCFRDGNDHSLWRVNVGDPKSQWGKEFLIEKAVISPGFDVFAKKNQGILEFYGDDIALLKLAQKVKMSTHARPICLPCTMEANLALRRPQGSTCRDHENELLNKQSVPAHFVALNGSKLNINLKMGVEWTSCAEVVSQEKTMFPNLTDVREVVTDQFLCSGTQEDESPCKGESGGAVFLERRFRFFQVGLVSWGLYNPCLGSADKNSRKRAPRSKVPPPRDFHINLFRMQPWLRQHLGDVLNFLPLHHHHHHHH
Protocol: (§1) Surface plasmon resonance (SPR, Biacore) was used for all binding affinity analyses. In brief, goat anti-human IgG was directly immobilised onto the carboxymethyl dextran surface of CM5 sensorchips to approximately 12,000 RU using standard NHS/EDC chemistry at pH 5. The immobilised antibody surface was pre-conditioned with ten injections of polyclonal human IgG (Privigen 60 s) prepared at 1 μg/mL. Ligands (anti-C2 mAbs) were captured at the beginning of each cycle as described below. An adjacent spot or flow cell in which only Polyclonal IgG was capture was used as a reference surface. The goat anti-human IgG Fc antibody surface was regenerate in 100 mM H3PO4, injected for 45 seconds at the end of each cycle. Experiments were performed at 37° C. and the flow rate of each experiment was kept constant at 30 μL/min.
(§2) Sensogram data was double-referenced against a reference anti-IgG surface (i.e. minus anti-C2 mAb) and blank buffer injections obtained within each experiment. The binding data was fit to 1:1 (kinetic or steady-state) model using local Rmax and null refraction index (RI=0) when appropriate. Buffers and solutions were filtered (0.22 μm) prior to use.

[2] = molecular target: T2, human C2 Y328A (human, UniProt P06681 21-752)
T2 sequence: T1 sequence with S306A, Y308A
Protocol: as §1, §2

[3] = molecular target: T3, human C2 V448A (human, UniProt P06681 21-752)
T3 sequence: T1 sequence with S306A, V428A
Protocol: as §1, §2

[4] = molecular target: T4, human C2 E450A (human, UniProt P06681 21-752)
T4 sequence: T1 sequence with S306A, E430A
Protocol: as §1, §2

B1: RF16-242 (antibody, human IgG4 S228P, lambda, V domains shown)
VH: EVQLLQSGAEVKKPGESLKISCKGSGYSFTSYWIGWVRQMPGKGLEWMGIIYPGDSDTRYSPSFQGQVTISADKSISTAYLQWSSLKASDTAMYYCARRGHYGDYFDYWGQGTLVTVSS
VL: SYELTQPPSVSVSPGQTARITCSGDALPKKYAYWYHQKSGQAPVLVIYEDRRRPSEIPERFSGSSSGTMATLTITGAQVEDEGVYFCYSRDRAGNQRVFGGGTQLTVLG
notes: pH-dependent anti-C2 antibody from a phage display library
Kd [1]: 9.9 nM | Kd [2]: 45.4 nM | Kd [3]: 5 nM | Kd [4]: 20.3 nM
